According to patent publication US20160272953A1, “Activated Sugars” (ZuChem, Inc., priority 2010, published 2016):

test: Sugar kinase activity of cell lysates with D-galactose at 37, 45, 55° C. (DNS assay); assay type: biochemical; conditions: 8 mM D-galactose; 37, 45 and 55° C.
Text: The formation of a phosphorylated sugar by kinase activity can be monitored by a number of methods. One method for detecting sugar-1-kinase activity is the 3,5-dinitrosalicylic acid (DNS) assay. This assay exploits the fact that reducing sugars can reduce compounds such as 3,5-dinitrosalicylic acid, which undergo a color change upon reduction. This assay can be used for sugar-1-kinases since the product of their reaction (sugar-1-phosphate) no longer has the ability to reduce DNS. Therefore, when the reaction is complete no color change occurs when incubated with DNS and the result is a yellow color. However, when reducing sugar remains, the result is reduction of DNS and red/brown color. This assay is furthermore concentration dependent providing a linear color change from 0.1 to 10 mM reducing sugar.
The sugar kinase proteins were expressed recombinantly in E. coli induced with 0.5mM IPTG and partially purified cell lysates were then assayed (100 μL) with 400 μmM ATP, 3.5 mM Mg^2+, and 8 mM D-galactose at three different temperatures, 37, 45, and 55° C. […] A negative control was treated similarly and consisted of the host strain with empty plasmid.

Molecule | activity in partially purified cell extract
S. thermophilus: Streptococcus thermophilus wild-type sugar-1-kinase (SEQ ID NO:8) (protein, listed as Streptococcus thermophilus) MNTSQLREKFKEVFGVEADHTFFSPGRINLIGEHTDYNGGNVLPVAITLGTYGAARKRDDKVLRFFSANFEEKGIIEVPLENLRFEKEHNWTNYPKGVLHFLQEAGHTIDSGMDIYIYGNIPNGSGLSSSSSLELLIGVIVEKLYDIKLERLDLVKIGKQTENDFIGVNSGIMDQFAIGMGADQCAIYLDTNTLKYDLVPLDLKDNVVVIMNTNKRRELADSKYNERRAECETAVSELQEKLDIQTLGELDFLTFDAYSYLIKDENRIKRARHVVLENQRTLQARKALEAGDLEGFGRLMNASHVSLEYDYEVTGLELDTLAHTAWEQEGVLGARMTGAGFGGCAIALVNKDKVEDFKKAVGQRYEEVVGYAPSFYIAEVTGGSRVLD | most activity
T. thermophilus: Thermus thermophilus wild-type sugar-1-kinase (SEQ ID NO:9) (protein, listed as Thermus thermophilus) MGFQEVYGVLPQASAQAPGRVNLLGEHTDYQEGYVLPTPIPYFTRVEAAPLEGAVEAFSENLGELRARPLSSPPQGDFLDYLLGVVRALREAGHEVAGARFYVRSDLPMGAGLSSSAALEVAALRALRTLYRLPLSDLEVARLAQKAEVEYVGVRCGIMDQMAASLGQPGQALFLDTRTLAYENLPLPPGVRVAVLDLGLGRRLAEAGYNRRRQEAEEAAKRLGVRSLRDVADLCLVESLPSPLDRRARHVVSENLRVLRGVEALRRGDARAFGELMTQSHRSLAQDYEVNLPELDALVEEALRAGAYGAKLTGAGFGGAVVALVAESRFPAFREALARRFPDLKVL | more active at temperatures higher than 37 °C
P. furiousus: Pyrococcus furiosus wild-type sugar-1-kinase (SEQ ID NO:10) (protein, listed as Pyrococcus furiosus) MSKITVKSPGRVNLIGEHTDYTYGYVMPMAIDLYTIITAEKYDKVQLYSEHFNEEKTFTLDNLTKEGSWIDYVKGVLWVLIQEGYKIGGLKGKITGDLPLGAGLSSSASFEVGILEVLNQLYNLNIDPLKKALLAKKAENEFVGVPCGILDQFAVVFGKKDNVIFLDTQTLQYEYIPFPKDVSVLVFYTGVKRELASSEYAERKRIAEESLRILGKESSKEVTEKDLGKLPPLHRKFFSYIVRENARVLEVRDALKEGDIEKVGKILTTAHWDLAENYRVSCEELDFFVKKAMELGAYGARLTGAGFGGSAIALVDKDKAKTIGDAILREYLAKFSWKAKYFVVKPSDGVGV | more active at temperatures higher than 37 °C
